Data: patent US7276480B1, “Prevention and reduction of blood loss” (Dyax Corp., priority 2005, dated 2007)
No end group written: not given here.

Target: human plasma kallikrein (Homo sapiens, UniProt P03952)
Experiment: Affinity (Ki,app) for plasma proteases, Table 1
Type: biochemical

Chain of human plasma kallikrein (P03952 391-638 limits assumed): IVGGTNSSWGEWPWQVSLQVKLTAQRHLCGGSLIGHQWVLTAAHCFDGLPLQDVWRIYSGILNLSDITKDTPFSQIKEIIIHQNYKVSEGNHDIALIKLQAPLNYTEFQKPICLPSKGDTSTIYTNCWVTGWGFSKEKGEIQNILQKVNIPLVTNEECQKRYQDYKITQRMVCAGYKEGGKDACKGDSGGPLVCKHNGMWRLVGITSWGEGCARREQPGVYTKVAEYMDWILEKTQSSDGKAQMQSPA
Chain of human plasma kallikrein (P03952 20-390 limits assumed): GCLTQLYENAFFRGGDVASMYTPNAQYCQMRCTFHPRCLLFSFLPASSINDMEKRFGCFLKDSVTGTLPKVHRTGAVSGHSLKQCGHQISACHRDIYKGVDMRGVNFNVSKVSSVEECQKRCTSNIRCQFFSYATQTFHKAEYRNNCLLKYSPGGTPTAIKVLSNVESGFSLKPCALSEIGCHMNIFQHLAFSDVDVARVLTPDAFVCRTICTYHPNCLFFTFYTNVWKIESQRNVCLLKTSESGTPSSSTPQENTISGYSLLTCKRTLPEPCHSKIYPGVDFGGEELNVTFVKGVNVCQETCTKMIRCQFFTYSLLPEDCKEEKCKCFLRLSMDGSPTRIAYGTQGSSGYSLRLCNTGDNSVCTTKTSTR

Substance | specificity among kallikrein and eleven other plasma proteases (from Table 1) | affinity (Ki,app) for kallikrein relative to the affinity of aprotinin (ratio versus aprotinin) [times higher] | concentration in the plasma required to inhibit 99% of the kallikrein at 1 nM (kallikrein 1 nM, 99% inhibition) | Ki (read-out: Ki,app, human plasma kallikrein) [nM]
PEP-1: non-naturally occurring KI polypeptide, 60-amino acid sequence of SEQ ID NO:2, recombinant from Pichia pastoris (EAMHSFCAFKADDGPCRAAHPRWFFNIFTRQCEEFIYGGCEGNQNRFESLEECKKMCTRD; ends and bridges not checked; cysteine pairing not given here) | highly specific for human plasma kallikrein | 1000 |  | 
aprotinin |  |  | at least 3 mu.M | 30
